Laboratory results as given in patent US20250327097A1, “ORGANISMS PRODUCING LESS CROTONIC ACID” (Global Bioenergies, priority 2021, published 2025).
Residue numbers refer to the chain shown, from its start. Names and notes keep the numbering of the source.

B1: I283T-P284D-i284aP-N287P-S322T-Q385T-N388M-E421V-C430N-L432F-L434W-S436N-H461T-dG462-A463T (protein)
chain: MFLKSLREQINLLKRQGDLRIINRPVDSYLEAAAIIRRSTETKAPVPLMTNIKGYPGCSIVGGLAALSSNPEYPLSRVAMSLGLSTTASAQSIVQYLIDGLKKTPYLPVEIDSNSAPCKQNILRGEDASLAHFPIPQVHQHDGNRYVNTWGVFIVESPDGQWCNWSIQRVQYLNDRQMIALVFPSQHISDIWEEWVKIGKPMPYALVQGCEPIVPYIAGLPLLERNVNEAEYIGALYGKGIEVVKCETHDLRVPASSEVVIEGYFAITREGVEGPFGEFAGYTDNEPSLQPILSITAISWQDDPIWPVVAEGKPVDEYHTCTGIGDAAAIQNVLLTANLPVSFVWVPLYSACHLMIVSINRHWRQTHPDLTSEQLTKKVGDVIHTTRMSIKLPKIVVLDDDVDPADTESLLWALATRIHPVRKRYFYESNIFPWLNCYSEEERHNRKGKRVIIDALLPENTGTISSFDYAYPDDIKQRVLMHWETDFSHD
B2: I283T-P284D-i284aP-N287P-S322T-H384G-N388M-E421V-C430N-L432F-L434W-S436N-H461T-dG462-A463T (protein)
chain: B1 chain with H384G, T385Q
B3: I283T-P284D-i284aP-N287P-S322T-H384L-N388M-E421V-C430N-L432F-L434W-S436N-H461T-dG462-A463T (protein)
chain: B1 chain with H384L, T385Q
B4: I283T-P284D-i284aP-N287P-L289R-S322T-N388M-E421V-C430N-L432F-L434W-S436N-H461T-dG462-A463T (protein)
chain: B1 chain with L289R, T385Q
B5: I283T-P284D-i284aP-E286A-N287P-S322T-N388M-E421V-C430N-L432F-L434W-S436N-H461T-dG462-A463T (protein)
chain: B1 chain with E286A, T385Q
B6: I283T-P284D-i284aP-E286S-N287P-S322T-N388M-E421V-C430N-L432F-L434W-S436N-H461T-dG462-A463T (protein)
chain: B1 chain with E286S, T385Q
B7: I283T-P284D-i284aP-N287P-S322T-N388M-E421V-C430N-L432F-L434W-S436N-H461T-dG462-A463T-D468L (protein)
chain: B1 chain with T385Q, D468L
B8: I283T-P284D-i284aP-N287P-S322T-N388M-E421V-C430N-L432F-L434W-S436N-G448C-H461T-dG462-A463T (protein)
chain: B1 chain with T385Q, G448C
B9: I283T-P284D-i284aP-N287P-S322T-N388M-E421V-C430N-L432F-L434W-S436N-G448E-H461T-dG462-A463T (protein)
chain: B1 chain with T385Q, G448E
B10: I283T-P284D-i284aP-N287P-S322T-N388M-E421V-C430N-L432F-L434W-S436N-G448V-H461T-dG462-A463T (protein)
chain: B1 chain with T385Q, G448V
B11: I283T-P284D-i284aP-N287P-S322T-N388M-E421V-C430N-L432F-L434W-S436N-H461T-dG462-A463T-Y469A (protein)
chain: B1 chain with T385Q, Y469A
B12: I283T-P284D-i284aP-N287P-S322T-N388M-E421V-C430N-L432F-L434W-S436N-H461T-dG462-A463T-Y469H (protein)
chain: B1 chain with T385Q, Y469H
B13: I283T-P284D-i284aP-N287P-S322T-N388M-E421V-C430N-L432F-L434W-S436N-C437F-H461T-dG462-A463T (protein)
chain: B1 chain with T385Q, C437F
B14: I283T-P284D-i284aP-N287P-S322T-N388M-E421V-C430N-L432F-L434W-S436N-C437G-H461T-dG462-A463T (protein)
chain: B1 chain with T385Q, C437G
B15: I283T-P284D-i284aP-N287P-S322T-N388M-E421V-C430N-I431M-L432F-L434W-S436N-H461T-dG462-A463T (protein)
chain: B1 chain with T385Q, I431M
B16: I283T-P284D-i284aP-N287P-S322T-N388M-E421V-C430N-L432F-L434W-S436N-H461T-G462R-i462aA-A463T (protein)
chain: B1 chain with T385Q, G462R
B17: R15L-I283T-P284D-i284aP-N287P-S322T-K378M-N388M-E421V-C430N-L432F-L434W-S436N-H461T-dG462-A463T (protein)
chain: B1 chain with R15L, K378M, T385Q
B18: V272L-I283T-P284D-i284aP-N287P-S322T-N388M-E421V-C430N-L432F-L434W-S436N-H461T-dG462-A463T (protein)
chain: B1 chain with V272L, T385Q
B19: V272R-I283T-P284D-i284aP-N287P-S322T-N388M-E421V-C430N-L432F-L434W-S436N-H461T-dG462-A463T (protein)
chain: B1 chain with V272R, T385Q
B20: V272I-I283T-P284D-i284aP-N287P-S322T-N388M-E421V-C430N-L432F-L434W-S436N-H461T-dG462-A463T (protein)
chain: B1 chain with V272I, T385Q
B21: I283T-P284D-i284aP-N287P-S322T-N388M-E421V-C430N-L432F-L434W-S436N-C437F-G448E-H461T-dG462-A463T (protein)
chain: B1 chain with T385Q, C437F, G448E
B22: I283T-P284D-i284aP-N287P-S322T-N388M-E421V-C430N-L432F-L434W-S436N-C437F-G448E-H461T-G462R-i462aA-A463T (protein)
chain: B1 chain with T385Q, C437F, G448E, G462R
B23: I283T-P284D-i284aP-N287P-S322T-N388M-E421V-C430N-L432F-L434W-S436N-C437F-H461T-G462R-i462aA-A463T (protein)
chain: B1 chain with T385Q, C437F, G462R
B24: I283T-P284D-i284aP-N287P-S322T-N388M-E421V-C430N-L432F-L434W-S436N-G448E-H461T-G462R-i462aA-A463T (protein)
chain: B1 chain with T385Q, G448E, G462R
B25: V272R-I283T-P284D-i284aP-N287P-S322T-N388M-E421V-C430N-L432F-L434W-S436N-C437F-H461T-dG462-A463T (protein)
chain: B1 chain with V272R, T385Q, C437F
B26: V272R-I283T-P284D-i284aP-N287P-S322T-N388M-E421V-C430N-L432F-L434W-S436N-C437F-G448E-H461T-dG462-A463T (protein)
chain: B1 chain with V272R, T385Q, C437F, G448E
B27: V272R-I283T-P284D-i284aP-N287P-S322T-N388M-E421V-C430N-L432F-L434W-S436N-C437F-G448E-H461T-G462R-i462aA-A463T (protein)
chain: B1 chain with V272R, T385Q, C437F, G448E, G462R
B28: V272R-I283T-P284D-i284aP-N287P-S322T-N388M-E421V-C430N-L432F-L434W-S436N-C437F-H461T-G462R-i462aA-A463T (protein)
chain: B1 chain with V272R, T385Q, C437F, G462R
B29: V272R-I283T-P284D-i284aP-N287P-S322T-N388M-E421V-C430N-L432F-L434W-S436N-G448E-H461T-dG462-A463T (protein)
chain: B1 chain with V272R, T385Q, G448E
B30: V272R-I283T-P284D-i284aP-N287P-S322T-N388M-E421V-C430N-L432F-L434W-S436N-G448E-H461T-G462R-i462aA-A463T (protein)
chain: B1 chain with V272R, T385Q, G448E, G462R

The molecules below were run on 3-methylcrotonic acid.
Format: biochemical, Yersinia frederiksenii
Design: key: “+” representing a low increase in activity; “++++” representing a high increase in activity

Row | Molecule | Activity relative to WT
1 | B1 | ++++
2 | B2 | ++++
3 | B3 | ++++
4 | B4 | ++++
5 | B5 | ++++
6 | B6 | ++++
7 | B7 | ++++
8 | B8 | ++++
9 | B9 | ++++
10 | B10 | ++++
11 | B11 | ++++
12 | B12 | ++++
13 | B13 | ++++
14 | B14 | ++++
15 | B15 | ++++
16 | B16 | ++++
17 | B17 | ++++
18 | B18 | ++++
19 | B19 | ++++
20 | B20 | ++++
21 | B21 | ++++
22 | B22 | ++++
23 | B23 | ++++
24 | B24 | ++++
25 | B25 | ++++
26 | B26 | ++++
27 | B27 | ++++
28 | B28 | ++++
29 | B29 | ++++
30 | B30 | ++++
